Article doi:10.1101/2025.07.02.662585 (bioRxiv, 2025)

T1: Avo3 (yeast (endogenous in yeast cells), UniProt P40061 1-1430)
T1 sequence: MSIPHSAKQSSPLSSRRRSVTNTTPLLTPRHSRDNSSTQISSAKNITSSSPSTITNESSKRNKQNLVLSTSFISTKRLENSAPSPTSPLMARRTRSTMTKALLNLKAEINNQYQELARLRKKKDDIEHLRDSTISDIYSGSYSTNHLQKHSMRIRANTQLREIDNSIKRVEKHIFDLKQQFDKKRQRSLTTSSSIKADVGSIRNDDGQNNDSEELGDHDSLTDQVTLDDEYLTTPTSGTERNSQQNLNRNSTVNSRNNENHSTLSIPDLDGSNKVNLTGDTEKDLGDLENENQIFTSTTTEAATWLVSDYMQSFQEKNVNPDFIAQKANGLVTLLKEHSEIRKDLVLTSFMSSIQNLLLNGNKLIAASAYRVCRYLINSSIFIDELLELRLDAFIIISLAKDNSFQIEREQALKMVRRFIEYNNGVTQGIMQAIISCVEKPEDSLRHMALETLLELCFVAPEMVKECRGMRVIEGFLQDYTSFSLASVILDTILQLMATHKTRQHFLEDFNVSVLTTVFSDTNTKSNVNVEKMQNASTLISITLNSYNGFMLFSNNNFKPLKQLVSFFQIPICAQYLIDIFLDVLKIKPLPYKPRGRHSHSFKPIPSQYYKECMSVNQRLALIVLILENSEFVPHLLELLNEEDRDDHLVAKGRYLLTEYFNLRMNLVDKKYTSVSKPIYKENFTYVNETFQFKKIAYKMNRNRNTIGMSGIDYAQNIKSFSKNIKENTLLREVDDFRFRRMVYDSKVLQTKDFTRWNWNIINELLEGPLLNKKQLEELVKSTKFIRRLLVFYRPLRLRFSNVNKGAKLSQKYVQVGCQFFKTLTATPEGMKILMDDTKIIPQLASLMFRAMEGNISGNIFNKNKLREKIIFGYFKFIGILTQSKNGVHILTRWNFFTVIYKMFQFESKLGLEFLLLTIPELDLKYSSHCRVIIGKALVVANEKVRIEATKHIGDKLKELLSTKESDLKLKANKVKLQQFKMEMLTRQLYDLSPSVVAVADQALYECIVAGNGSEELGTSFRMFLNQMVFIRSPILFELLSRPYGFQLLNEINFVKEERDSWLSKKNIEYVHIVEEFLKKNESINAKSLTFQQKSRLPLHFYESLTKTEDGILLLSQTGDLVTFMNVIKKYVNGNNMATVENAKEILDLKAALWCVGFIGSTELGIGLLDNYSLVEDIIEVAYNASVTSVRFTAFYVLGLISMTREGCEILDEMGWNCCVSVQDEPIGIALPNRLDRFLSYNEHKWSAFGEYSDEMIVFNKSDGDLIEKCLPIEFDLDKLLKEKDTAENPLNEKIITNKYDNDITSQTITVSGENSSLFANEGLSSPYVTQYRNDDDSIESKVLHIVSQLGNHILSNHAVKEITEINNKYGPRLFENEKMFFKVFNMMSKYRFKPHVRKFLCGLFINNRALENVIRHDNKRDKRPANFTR

B1: Avo2 (natural protein)
chain: MLKEPSVRLREAIIEGNLLIVKRLLRRNPDLLTNIDSENGWSSLHYASYHGRYLICVYLIQLGHDKHELIKTFKGNTCVHLALMKGHEQTLHLLLQQFPRFINHRGENGRAPIHIACMNDYYQCLSLLIGVGADLWVMDTNGDTPLHVCLEYGSISCMKMLLNEGEVSLDDNVRDKGNWKPIDVAQTFEVGNIYSKVLKEVKKKGPPLGAGKKPSSFRTPILNAKATFEDGPSPVLSMNSPYSLYSNNSPLPVLPRRISTHTTSGNGGNRRSSITNPVFNPRKPTLSTDSFSSSSNSSSRLRVNSINVKTPVGVSPKKELVSESVRHSATPTSPHNNIALINRYLLPNKSNDNVRGDSQTATINDDGGGGNGGDATIGMGLRKDPDDENENKYKIKVNNGEPRRRVSLLNIPISKLRNSNNTRAED
B2: Avo1 (natural protein)
chain: MDTVTVLNELRAQFLRVCPEKDQMKRIIKPYIPVDEFNTEQCLDSSIRELYMNSDGVSLLPELESPPVSKDFMENYASLGKMRIMRENEGQKGKANQNLIGAEKTERDEEETRNLQDKSAKNTLIVEENGTLRYNPLNSSASNSLLNDDDHTSGKHHKTSSKEDSYLNSSMEMQKKSSKRSSLPFVRIFKSRRDHSNTSGNKNVMNTTNTRAKSSTLHPPGARHNKKGSKFDMNFDFDENLEEEDDDDDDDEEGDDIHSQFFQLDDDFDAKGSGASPAHKGINGMSNNKNNTYTNNRNSISILDDRESSNGNIGSASRLKSHFPTSQKGKIFLTDNKNDGQKSDSLNANKGIHGDGSSASGNGSVSRDGLTETESNNISDMESYINEKDLDDLNFDTVTSNINKTVSDLGGHESTNDGTAVMNRDSKDSRSNSNEFNAQNRDRITPGSSYGKSLLGSEYSEERYSNNDSSTMESGEMSLDSDMQTNTIPSHSIPMSMQKYGIYHGDDDSTLNNVFDKAVLTMNSSRHPKERRDTVISGKEPTSLTSSNRKFSVSSNLTSTRSPLLRGHGRTSSTASSEHMKAPKVSDSVLHRARKSTLTLKQDHSQPSVPSSVHKSSKEGNILIEKTTDYLVSKPKASQLSNMFNKKKKRTNTNSVDVLEYFSFVCGDKVPNYESMGLEIYIQASKKYKRNSFTTKVRKSSTIFEVIGFALFLYSTEKKPDNFEEDGLTVEDISNPNNFSLKIVDEDGEPFEDNFGKLDRKSTIQSISDSEVVLCKVDDAEKSQNEIETPLPFETGGGLMDASTLDANSSHDTTDGTINQLSFYKPIIGNEDDIDKTNGSKIIDVTVYLYPNVNPKFNYTTISVLVTSHINDILVKYCKMKNMDPNEYALKVLGKNYILDLNDTVLRLDGINKVELISKKDARELHLEKMKPDLKKPVLPTIQSNDLTPLTLEPLNSYLKADAGGAVAAIPENTKVTSKAKKISTKYKLGLAKQHSSSSVASGSVSTAGGLANGNGFFKNKNSSKSSLHGTLQFHNINRSQSTMEHTPDTPNGVGDNFQDLFTGAYHKYKVWRRQQMSFINKHERTLAIDGDYIYIVPPEGRIHWHDNVKTKSLHISQVVLVKKSKRVPEHFKIFVRREGQDDIKRYYFEAVSGQECTEIVTRLQNLLSAYRMNHK
B3: Lst8 (natural protein)
chain: MSVILVSAGYDHTIRFWEALTGVCSRTIQHSDSQVNRLEITNDKKLLATAGHQNVRLYDIRTTNPNPVASFEGHRGNVTSVSFQQDNRWMVTSSEDGTIKVWDVRSPSIPRNYKHNAPVNEVVIHPNQGELISCDRDGNIRIWDLGENQCTHQLTPEDDTSLQSLSMASDGSMLAAANTKGNCYVWEMPNHTDASHLKPVTKFRAHSTYITRILLSSDVKHLATCSADHTARVWSIDDDFKLETTLDGHQRWVWDCAFSADSAYLVTASSDHYVRLWDLSTREIVRQYGGHHKGAVCVALNDV
B4: Bit61 (natural protein)
chain: MTAEDILLRERTSTTTQRPVNSEQYLNVQLATAPVKNFQTTSEISRQTLVDTSNDDVYSIKNLKGSRNPISPSVSNVGFQSIFHTVDHPRSKVSVASNHSLRSNDNASAATSKSGSSQIGESHSVDTVECSNNLSKKLSSDAISITQKSLHSTPSGRYMKGKASGFFNRRNRAHTTISSDPASFLTDSSTLHNSSHSFRNVIKNFFQNKSHRHIGQDAIEPAIPNSLSKFLHSSYGRHKSPSQFIHTNAGQLVDSGTSVYSLNVNPSGVNPNTIVEDPLSGTDPASPNPVSMLHDLLRNLPSLEANYKHFNSQELTTLTNNIWNIFCSNVAELFRTQRIWKLRAKIENFNEVLEFYCILKTDPRVTHSGMNRIISDLKEFLVSSLYNLENQIVFNYSNEDTINNALKRLGVIWRIFYQEVYYDLAAVLLPLDQSIREDGNSTVLKSGNESRTHINGNYSIGFLLLMCFRDSIVLPCYENFVNSNDGISKSFQLYIFNQEEESNVTETDKLTLLQCFGILSTIQSNDRNQRIIEELLAGIRMSI

Columns and labels:
Avo3 = biological target: T1, Avo3; experiment: cryo-EM structure
Avo1 = biological target: B2; experiment: cryo-EM structure

Binder	binding result (Avo3)	binding result (Avo1)
B1	binds	
B2	binds	
B3		binds
B4	binds	
